In PMC11955550:

Columns and labels:
[1] = target: α-synuclein (αSyn) amyloid fibrils (UniProt P37840); assay: co-sedimentation; αSyn fibrils 20 µM (monomer) with DNAJB1 8 µM in HKMD buffer (50 mM HEPES, 50 mM KCl, 5 mM MgCl2, 2 mM DTT, pH 7.50), 30 min at 30 °C; 17,000 g 30 min; pellet and supernatant on SDS-PAGE, densitometry
[2] = target: α-synuclein (αSyn) amyloid fibrils (UniProt P37840); assay: co-sedimentation; αSyn fibrils 20 µM (monomer) with DNAJB1 8 µM in low-salt HD buffer (50 mM HEPES, 2 mM DTT, pH 7.50), 30 min at 30 °C; 17,000 g 30 min; pellet and supernatant on SDS-PAGE, densitometry

- percent bound [1]: 40%
- percent bound [2]: 80%
Substance: wild-type DNAJB1 (from UniProt P25685 1-340) (natural protein)
